Read-outs that look alike come from different tables or passages of the source.
T1: wt-CTCF (3xFLAG-Halo-wt-CTCF-6xHis) (mouse, UniProt Q61164 1-736)
T1 sequence: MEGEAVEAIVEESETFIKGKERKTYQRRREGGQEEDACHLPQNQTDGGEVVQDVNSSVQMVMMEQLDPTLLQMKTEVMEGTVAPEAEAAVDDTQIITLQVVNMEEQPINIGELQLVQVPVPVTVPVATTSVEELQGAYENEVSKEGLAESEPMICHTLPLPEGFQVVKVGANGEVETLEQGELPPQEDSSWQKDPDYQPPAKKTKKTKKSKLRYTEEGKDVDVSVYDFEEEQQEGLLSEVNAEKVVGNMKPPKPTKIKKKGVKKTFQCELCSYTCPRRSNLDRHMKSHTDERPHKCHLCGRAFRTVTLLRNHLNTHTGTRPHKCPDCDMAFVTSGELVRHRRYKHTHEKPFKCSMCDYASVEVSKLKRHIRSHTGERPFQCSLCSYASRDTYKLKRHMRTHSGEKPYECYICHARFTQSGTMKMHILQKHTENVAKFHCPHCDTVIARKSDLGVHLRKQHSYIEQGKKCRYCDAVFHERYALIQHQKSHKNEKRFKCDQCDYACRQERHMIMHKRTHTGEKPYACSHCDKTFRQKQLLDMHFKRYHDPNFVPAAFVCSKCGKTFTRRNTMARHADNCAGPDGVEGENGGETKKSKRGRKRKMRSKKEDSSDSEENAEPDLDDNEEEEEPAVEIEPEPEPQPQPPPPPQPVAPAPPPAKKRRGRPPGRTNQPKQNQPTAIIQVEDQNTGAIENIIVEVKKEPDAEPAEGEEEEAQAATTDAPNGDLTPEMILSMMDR

T2: ΔRBRi-CTCF (3xFLAG-Halo-ΔRBRi-CTCF-6xHis) (mouse, UniProt Q61164 1-575+612-736, internal_change)
T2 sequence: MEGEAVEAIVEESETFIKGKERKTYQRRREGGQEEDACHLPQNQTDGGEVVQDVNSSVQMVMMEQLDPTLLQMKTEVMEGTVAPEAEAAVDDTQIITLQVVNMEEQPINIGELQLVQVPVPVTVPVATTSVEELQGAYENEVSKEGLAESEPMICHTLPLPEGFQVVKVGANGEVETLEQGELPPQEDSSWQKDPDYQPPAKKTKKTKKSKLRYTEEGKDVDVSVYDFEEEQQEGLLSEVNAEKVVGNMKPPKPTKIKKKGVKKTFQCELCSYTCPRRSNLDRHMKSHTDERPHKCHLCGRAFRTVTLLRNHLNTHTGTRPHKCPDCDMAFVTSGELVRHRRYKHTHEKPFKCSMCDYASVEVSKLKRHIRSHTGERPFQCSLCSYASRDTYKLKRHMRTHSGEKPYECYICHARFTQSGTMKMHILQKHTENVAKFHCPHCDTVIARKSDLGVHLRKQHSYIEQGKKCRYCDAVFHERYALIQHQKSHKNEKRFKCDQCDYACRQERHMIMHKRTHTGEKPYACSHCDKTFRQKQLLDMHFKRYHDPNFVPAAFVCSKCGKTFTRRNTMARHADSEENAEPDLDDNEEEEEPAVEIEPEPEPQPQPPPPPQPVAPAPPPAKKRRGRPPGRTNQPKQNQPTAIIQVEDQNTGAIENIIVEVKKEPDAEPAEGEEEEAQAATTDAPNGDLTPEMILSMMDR

B1: Core CTCF binding site duplex (dsDNA)
DNA 1: AGGACCAGCAGGGGGCGCA
DNA 2: TGCGCCCCCTGCTGGTCCT
B2: Mutated core CTCF binding site duplex (dsDNA)
DNA 1: AGGATTCTAATTTCGATCA
DNA 2: TGATCGAAATTAGAATCCT

What was measured:
Assay in all cases: fluorescence polarization
[1] = target: T1, wt-CTCF (3xFLAG-Halo-wt-CTCF-6xHis)
[2] = target: T2, ΔRBRi-CTCF …
[3] = target: T1, wt-CTCF (3xFLAG-Halo-wt-CTCF-6xHis); remark: listed apart in the source
[4] = target: T2, ΔRBRi-CTCF …; remark: listed apart in the source

Binder	binding result [1]	binding result [2]	binding result [3]	binding result [4]
B1	binds	binds		
B2			no binding	no binding

Reference: paper PMC7036004
